# Literature values, collected in PMC10299984 (Diabetes Therapy, 2023).
# Settings: 36 healthy participants
substance,measurement,value
insulin glargine [iGlar],INS-tmax,12 h
